# Measured values published in patent US10851403B2, “Cyclin-dependent kinase substrate” (SYSMEX CORPORATION, priority 2017, dated 2020).
# No end group written: not given here. *: point of attachment. Biotin = O=C1N[C@H]2[C@H](CS[C@H]2CCCCC(=O)*)N1; Ahx = NCCCCCC(=O)O
# Experiments:
# CDK6/cyclin D3 = molecular target: T1, CDK6/cyclin D3 (Homo sapiens, UniProt Q00534); test: CDK reactivity test 6 (Test Example 6), automated immunoassay system HISCL-800; assay type: biochemical; settings: 0.01 to 10 μg/mL CDK1/A2, CDK2/E1, CDK4/D3 or CDK6/D3; ATP; anti-phospho-antibody; 42° C. 3 minutes
# T1 construct: purchased SignalChem
# Method: The reactivity of the polypeptide (Polypeptide 28) obtained in Production Example 5 to CDK1, CDK2, CDK4 and CDK6 was examined using an automated immunoassay system (manufactured by Sysmex Corporation, HISCL-800). Specifically, it was performed as follows.
# In a well of a plate, 30 μL of a CDK solution (composition: 0.01 to 10 μg/mL CDK/cyclin complex, 1% BSA, triethanolamine buffer solution (pH 7.5)) containing CDK1/cyclin A2, CDK2/cyclin E1, CDK4/cyclin D3 or CDK6/cyclin D3 (all manufactured by SignalChem) and 30 μL of a kinase reaction solution (composition: 4 μg/mL substrate peptide, 50 mM HEPES-NaOH buffer solution (pH 7.4), 15 mM MgCl2, 16 mM ATP) containing Polypeptide 28 as a substrate peptide were mixed, and the plate was incubated at 42° C. for 3 minutes. 30 μL (containing 0.15 μg of magnetic St-Ab beads) of a HISCL HBsAg R2 reagent (manufactured by Sysmex Corporation) was added to the well, and the plate was incubated at 42° C. for 2 minutes. The beads in the well were precipitated using a magnet, and the supernatant was removed. Then, a HISCL washing solution (manufactured by Sysmex Corporation) was added, and the beads were washed by shaking several times. […] Luminescence was detected with a luminometer, and the luminescence intensity was measured.
# CDK4/cyclin D3 = molecular target: T2, CDK4/cyclin D3 (Homo sapiens, UniProt P11802); test: CDK reactivity test 3 (Test Example 3); assay type: biochemical; settings: luminescence intensity when using CDK6 set as 100%, HRP-labeled anti-FITC antibody
# T2 construct: purchased SignalChem
# Method: The reactivity of the polypeptides obtained in Production Example 3 to CDK1, CDK2, CDK4 and CDK6 was examined. Specifically, it was performed as follows.
# In a well of a hydrophilic filter plate, 30 μL of a CDK solution (composition: 10 μg/mL CDK/cyclin complex, 1% BSA, triethanolamine buffer solution (pH 7.5)) containing CDK1/cyclin A2, CDK2/cyclin E1, CDK4/cyclin D3 or CDK6/cyclin D3 (all manufactured by SignalChem) and 30 μL of a kinase reaction solution (composition: 4 μg/mL substrate peptide, 50 mM HEPES-NaOH buffer solution (pH 7.4), 15 mM MgCl2, 2 mM ATP-γS) containing any of Comparative Polypeptides 2 to 4 as a substrate peptide were mixed, and the plate was incubated at 37° C. for 1 hour with stirring at 900 rpm using a constant temperature shaker. The reaction solution was recovered by centrifugation (4° C., 2000 rpm, 5 minutes), and 28.6 μL of the reaction solution was dispensed into each well of a PCR plate. […] Luminescence was detected with a luminescence plate reader, and the luminescence intensity was measured. For each polypeptide, the relative value of the luminescence intensity when using other CDKs, in the case where the luminescence intensity when using CDK6 was set as 100%, was calculated.
# T1 sequence (Q00534 whole entry): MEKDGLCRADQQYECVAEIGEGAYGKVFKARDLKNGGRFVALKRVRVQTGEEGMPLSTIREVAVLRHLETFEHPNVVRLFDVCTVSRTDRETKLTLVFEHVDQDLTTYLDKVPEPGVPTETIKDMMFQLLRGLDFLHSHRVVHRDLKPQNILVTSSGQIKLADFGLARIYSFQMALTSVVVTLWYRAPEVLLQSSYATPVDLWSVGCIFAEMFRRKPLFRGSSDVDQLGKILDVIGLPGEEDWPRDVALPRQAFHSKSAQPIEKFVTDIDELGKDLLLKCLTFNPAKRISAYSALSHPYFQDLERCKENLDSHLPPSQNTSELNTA
# T1 sequence (P30281 whole entry partner): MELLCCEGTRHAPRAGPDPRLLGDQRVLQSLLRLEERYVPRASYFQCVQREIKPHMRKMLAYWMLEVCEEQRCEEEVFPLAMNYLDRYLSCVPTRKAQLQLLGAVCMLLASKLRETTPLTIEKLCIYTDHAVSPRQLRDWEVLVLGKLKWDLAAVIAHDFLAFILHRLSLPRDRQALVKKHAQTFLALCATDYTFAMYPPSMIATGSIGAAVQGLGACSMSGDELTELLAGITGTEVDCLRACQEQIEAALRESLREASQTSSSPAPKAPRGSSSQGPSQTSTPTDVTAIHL
# T2 sequence (P11802 whole entry): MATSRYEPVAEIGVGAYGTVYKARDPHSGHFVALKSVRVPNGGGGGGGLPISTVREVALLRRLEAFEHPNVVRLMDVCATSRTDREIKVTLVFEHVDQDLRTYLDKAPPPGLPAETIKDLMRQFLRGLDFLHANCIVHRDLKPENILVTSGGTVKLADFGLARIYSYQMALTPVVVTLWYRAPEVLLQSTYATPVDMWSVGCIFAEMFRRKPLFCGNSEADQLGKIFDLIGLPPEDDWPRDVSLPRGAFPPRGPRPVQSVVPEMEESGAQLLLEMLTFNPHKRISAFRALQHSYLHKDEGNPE
# T2 sequence (P30281 whole entry partner): as the sequence (P30281 whole entry partner) above
relative value of the luminescence intensity (CDK4/cyclin D3),Sequence,"specific detection of CDK (luminescence intensity versus CDK concentration, FIG. 3) (CDK6/cyclin D3)"
,"GAPWSPDPWDDGGGG ({Biotin-Ahx}-GAPWSPDPWDDGGGG) [Polypeptide 28, acidic-residue mutant of Polypeptide 3, N-terminal biotin via aminohexane linker]",a substrate capable of specifically detecting CDK6
Not detected,"PYKISEGLPTPAKMAPRSRI (PYKISEGLPTPAKMAPRSRI-NH2; not fully specified (N-terminus)) [Comparative Polypeptide 4, Comparative Polypeptide 3 with the CDK4 phosphorylation site residue replaced with alanine; N-terminal biotin]",
